The values below come from US9266964.

The target of this experiment is human plasma kallikrein (human) (UniProt P03952). The experiment can be described thus: ELISA; signal on coated biotinylated human plasma kallikrein divided by signal on streptavidin; Fab.
Sequence of human plasma kallikrein (human) (P03952 20-390, chain 1 of 2): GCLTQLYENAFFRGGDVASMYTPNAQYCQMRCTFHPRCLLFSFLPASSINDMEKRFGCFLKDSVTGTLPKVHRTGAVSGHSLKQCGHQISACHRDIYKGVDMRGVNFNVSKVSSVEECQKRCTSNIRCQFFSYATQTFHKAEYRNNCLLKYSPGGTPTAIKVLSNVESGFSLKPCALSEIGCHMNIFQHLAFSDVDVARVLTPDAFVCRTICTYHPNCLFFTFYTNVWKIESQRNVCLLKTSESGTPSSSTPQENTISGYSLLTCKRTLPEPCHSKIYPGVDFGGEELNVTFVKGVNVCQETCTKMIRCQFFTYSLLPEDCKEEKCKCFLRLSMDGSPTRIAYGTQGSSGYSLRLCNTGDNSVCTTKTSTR
Sequence of human plasma kallikrein (human) (P03952 391-638, chain 2 of 2): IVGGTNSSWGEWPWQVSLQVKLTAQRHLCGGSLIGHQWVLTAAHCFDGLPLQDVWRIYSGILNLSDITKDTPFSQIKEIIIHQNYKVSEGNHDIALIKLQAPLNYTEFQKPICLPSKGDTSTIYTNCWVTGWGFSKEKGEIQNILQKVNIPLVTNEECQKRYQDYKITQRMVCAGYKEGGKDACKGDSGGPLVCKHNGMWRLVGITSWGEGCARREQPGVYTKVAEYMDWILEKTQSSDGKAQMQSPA

B1: M28-F01 (Fab, V domains shown)
VH: EVQLLESGGGLVQPGGSLRLSCAASGFTFSVYLMHWVRQAPGKGLEWVSGISPSGGYTQYADSVKGRFTISRDNSKNTLYLQMNSLRAEDTAVYYCARPGGLDAFDIWGQGTMVTVSS
VL: DIQMTQSPSSLSASVGDRVTITCRASQSINTYLNWYQQKPGKAPKVLIHAASTLESGVPSRFSGSGSGTDFTLTISSLQPEDFATYYCQQSYSTPPTFGQGTKVEIK
In the case of B1, the Human pKal ELISA (T/B) (T/B (target signal / background signal)) worked out at 1.5.

B2: M29-E02 (Fab, V domains shown)
VH: EVQLLESGGGLVQPGGSLRLSCAASGFTFSRYPMMWVRQAPGKGLEWVSVIYPSGGDTFYADSVKGRFTISRDNSKNTLYLQMNSLRAEDTAVYYCASGDDYLWEAAVYWGQGTLVTVSS
VL: QSVLTQPPSVSEAPRQRVTISCSGSSSNIGNNAVSWYQQLPGKAPKLLIYYDDLLPSGVSDRFSGSKSGTSASLAISGLRSEDEADYYCAAWDDSLNGFVFGTGTKVTVL
Molecule B2 registered a Human pKal ELISA (T/B) (T/B (target signal / background signal)) of 2.
